Our source for the Binding affinity and Binding affinity (RU) values is US20250011363A1, “OPTIMIZED SHORTENED PEPTIDE THAT BINDS TO ACETYLCHOLINE RECEPTOR, AND USE THEREOF” (SKINMED CO., LTD., priority 2021, published 2025).

For experiment [1], the target named is acetylcholine receptor. In words: SPR, receptor immobilised on chip, peptide at 10 µM. (SPR reads the build-up and loss of mass on a sensor chip optically.)
Experiment [2] has as its target acetylcholine receptor. Briefly: SPR, AchR immobilized on CM5 chip, peptide 10 µM.
For experiment [3], the target named is acetylcholine receptor. Briefly: SPR, AchR immobilized on chip.

On to KGIRKK [6mer-2-476], for which the Binding affinity in experiment [1] was determined as 148 RU. With RWQTKK [6mer-2-266], in experiment [2], the Binding affinity (RU) stood at 131 RU. Same read-out and setting: to KRVLKR [6mer-2-243] belongs 148 RU; to KSQQKR [6mer-2-256], 142 RU. The same measure, in the same setting: to RSYTRR [6mer-2-248] belongs 154 RU; to RLRRKK [6mer-2-255], 139 RU; to KGYQKK [6mer-2-247], 146 RU. As to RRYLKK [6mer-2-483], in experiment [1], the Binding affinity came out at 121 RU.

For KSQTKR [6mer-2-251], the Binding affinity (RU) in experiment [2] was 142 RU.

Take RVISKK [6mer-2-489]: the Binding affinity in experiment [1] amounted to 142 RU.

In turn, RSLSKR [6mer-2-245] showed a Binding affinity (RU) in experiment [2] of 135 RU.

KQQSKK [6mer-2-486] returned a Binding affinity in experiment [1] of 121 RU. For KRRRKK [6mer-2-250], in experiment [2], the Binding affinity (RU) amounted to 145 RU. RQICKK [6mer-2-268]: the Binding affinity (RU) in experiment [2] came out at 139 RU. In experiment [1], KWISRR [6mer-2-471] showed a Binding affinity of 136 RU. KRIYRR [6mer-2-258] registered a Binding affinity (RU) in experiment [2] of 125 RU. For the molecule RWYTKR [6mer-2-484], the Binding affinity in experiment [1] amounted to 148 RU. In turn, KRIQRR [6mer-2-254] gave a Binding affinity (RU) in experiment [2] of 148 RU. Take RQRYKK [6mer-2-481]: the Binding affinity in experiment [1] came out at 131 RU.

In turn, KRFCRR [6mer-2-475] displayed a Binding affinity in experiment [1] of 139 RU. In experiment [2], KLRSRR [6mer-2-253] came in with a Binding affinity (RU) of 145 RU. The molecule RRQTRK [6mer-2-265] displayed a Binding affinity (RU) in experiment [2] of 135 RU. RSFSKR [6mer-2-468] returned a Binding affinity in experiment [1] of 133 RU. The same measure, in the same setting: with RRYQKK [6mer-2-490] the figure was 145 RU. With KSQLKR [6mer-2-264], the Binding affinity (RU) in experiment [2] is 127 RU. For KGQTRR [6mer-2-482], the Binding affinity in experiment [1] is 154 RU. In turn, RQIQKR [6mer-2-485] returned a Binding affinity in experiment [1] of 148 RU. In experiment [2], RRICKR [6mer-2-263] had a Binding affinity (RU) of 145 RU. KRICKR [6mer-2-491] returned a Binding affinity in experiment [1] of 135 RU. As to KWISKK [6mer-2-246], the Binding affinity (RU) in experiment [2] worked out at 123 RU. Turning to RGLRKR [6mer-2-249], the Binding affinity (RU) in experiment [2] came out at 136 RU. The molecule RLRTKK [6mer-2-469] displayed a Binding affinity in experiment [1] of 153 RU.

On to RLRRRK [6mer-2-470], for which the Binding affinity in experiment [1] turned out to be 153 RU. With RVQSKR [6mer-2-259], the Binding affinity (RU) in experiment [2] is 128 RU.

For RGRLRK [6mer-2-473], in experiment [1], the Binding affinity is 131 RU. For RSRTRR [6mer-2-477], the Binding affinity in experiment [1] is 135 RU. For the molecule RSRLRR [6mer-2-472], the Binding affinity in experiment [1] was determined as 148 RU.

In turn, RWYTKK [6mer-2-261] came in with a Binding affinity (RU) in experiment [2] of 121 RU. In turn, KRFCRK [6mer-2-257] registered a Binding affinity (RU) in experiment [2] of 144 RU.

The molecule KSYTKR [6mer-2-487] came in with a Binding affinity in experiment [1] of 121 RU. In experiment [1], KWYTRK [6mer-2-478] registered a Binding affinity of 145 RU. Still for that read-out and setting: with RRFTKK [6mer-2-480] the figure was 147 RU. For KWILKR [6mer-2-262], the Binding affinity (RU) in experiment [2] came to 142 RU. With KWRQKR [6mer-2-233], the Binding affinity (RU) in experiment [2] and in experiment [3] was 190 RU in each case.

In experiment [1], KWRLKK [6mer-2-479] came in with a Binding affinity of 154 RU. The molecule KVYRRK [6mer-2-488] registered a Binding affinity in experiment [1] of 146 RU. For the molecule KVFRKK [6mer-2-252], the Binding affinity (RU) in experiment [2] came to 148 RU. Turning to RRFSKR [6mer-2-244], the Binding affinity (RU) in experiment [2] is 139 RU. Take RRFCKR [6mer-2-260]: in experiment [2], the Binding affinity (RU) was 142 RU.

In experiment [2], KLYSRR [6mer-2-267] gave a Binding affinity (RU) of 141 RU. RWQQRR [6mer-2-474]: the Binding affinity in experiment [1] came to 128 RU.
